The assay concerns the target endogenous UBR4 tagged with FLAG at the UBR4 locus (human (endogenous in HEK293T)) (UniProt Q5T4S7). In words: cryo-EM structure.

endogenous UBR4 tagged with FLAG at the UBR4 locus, sequence (Q5T4S7 whole entry): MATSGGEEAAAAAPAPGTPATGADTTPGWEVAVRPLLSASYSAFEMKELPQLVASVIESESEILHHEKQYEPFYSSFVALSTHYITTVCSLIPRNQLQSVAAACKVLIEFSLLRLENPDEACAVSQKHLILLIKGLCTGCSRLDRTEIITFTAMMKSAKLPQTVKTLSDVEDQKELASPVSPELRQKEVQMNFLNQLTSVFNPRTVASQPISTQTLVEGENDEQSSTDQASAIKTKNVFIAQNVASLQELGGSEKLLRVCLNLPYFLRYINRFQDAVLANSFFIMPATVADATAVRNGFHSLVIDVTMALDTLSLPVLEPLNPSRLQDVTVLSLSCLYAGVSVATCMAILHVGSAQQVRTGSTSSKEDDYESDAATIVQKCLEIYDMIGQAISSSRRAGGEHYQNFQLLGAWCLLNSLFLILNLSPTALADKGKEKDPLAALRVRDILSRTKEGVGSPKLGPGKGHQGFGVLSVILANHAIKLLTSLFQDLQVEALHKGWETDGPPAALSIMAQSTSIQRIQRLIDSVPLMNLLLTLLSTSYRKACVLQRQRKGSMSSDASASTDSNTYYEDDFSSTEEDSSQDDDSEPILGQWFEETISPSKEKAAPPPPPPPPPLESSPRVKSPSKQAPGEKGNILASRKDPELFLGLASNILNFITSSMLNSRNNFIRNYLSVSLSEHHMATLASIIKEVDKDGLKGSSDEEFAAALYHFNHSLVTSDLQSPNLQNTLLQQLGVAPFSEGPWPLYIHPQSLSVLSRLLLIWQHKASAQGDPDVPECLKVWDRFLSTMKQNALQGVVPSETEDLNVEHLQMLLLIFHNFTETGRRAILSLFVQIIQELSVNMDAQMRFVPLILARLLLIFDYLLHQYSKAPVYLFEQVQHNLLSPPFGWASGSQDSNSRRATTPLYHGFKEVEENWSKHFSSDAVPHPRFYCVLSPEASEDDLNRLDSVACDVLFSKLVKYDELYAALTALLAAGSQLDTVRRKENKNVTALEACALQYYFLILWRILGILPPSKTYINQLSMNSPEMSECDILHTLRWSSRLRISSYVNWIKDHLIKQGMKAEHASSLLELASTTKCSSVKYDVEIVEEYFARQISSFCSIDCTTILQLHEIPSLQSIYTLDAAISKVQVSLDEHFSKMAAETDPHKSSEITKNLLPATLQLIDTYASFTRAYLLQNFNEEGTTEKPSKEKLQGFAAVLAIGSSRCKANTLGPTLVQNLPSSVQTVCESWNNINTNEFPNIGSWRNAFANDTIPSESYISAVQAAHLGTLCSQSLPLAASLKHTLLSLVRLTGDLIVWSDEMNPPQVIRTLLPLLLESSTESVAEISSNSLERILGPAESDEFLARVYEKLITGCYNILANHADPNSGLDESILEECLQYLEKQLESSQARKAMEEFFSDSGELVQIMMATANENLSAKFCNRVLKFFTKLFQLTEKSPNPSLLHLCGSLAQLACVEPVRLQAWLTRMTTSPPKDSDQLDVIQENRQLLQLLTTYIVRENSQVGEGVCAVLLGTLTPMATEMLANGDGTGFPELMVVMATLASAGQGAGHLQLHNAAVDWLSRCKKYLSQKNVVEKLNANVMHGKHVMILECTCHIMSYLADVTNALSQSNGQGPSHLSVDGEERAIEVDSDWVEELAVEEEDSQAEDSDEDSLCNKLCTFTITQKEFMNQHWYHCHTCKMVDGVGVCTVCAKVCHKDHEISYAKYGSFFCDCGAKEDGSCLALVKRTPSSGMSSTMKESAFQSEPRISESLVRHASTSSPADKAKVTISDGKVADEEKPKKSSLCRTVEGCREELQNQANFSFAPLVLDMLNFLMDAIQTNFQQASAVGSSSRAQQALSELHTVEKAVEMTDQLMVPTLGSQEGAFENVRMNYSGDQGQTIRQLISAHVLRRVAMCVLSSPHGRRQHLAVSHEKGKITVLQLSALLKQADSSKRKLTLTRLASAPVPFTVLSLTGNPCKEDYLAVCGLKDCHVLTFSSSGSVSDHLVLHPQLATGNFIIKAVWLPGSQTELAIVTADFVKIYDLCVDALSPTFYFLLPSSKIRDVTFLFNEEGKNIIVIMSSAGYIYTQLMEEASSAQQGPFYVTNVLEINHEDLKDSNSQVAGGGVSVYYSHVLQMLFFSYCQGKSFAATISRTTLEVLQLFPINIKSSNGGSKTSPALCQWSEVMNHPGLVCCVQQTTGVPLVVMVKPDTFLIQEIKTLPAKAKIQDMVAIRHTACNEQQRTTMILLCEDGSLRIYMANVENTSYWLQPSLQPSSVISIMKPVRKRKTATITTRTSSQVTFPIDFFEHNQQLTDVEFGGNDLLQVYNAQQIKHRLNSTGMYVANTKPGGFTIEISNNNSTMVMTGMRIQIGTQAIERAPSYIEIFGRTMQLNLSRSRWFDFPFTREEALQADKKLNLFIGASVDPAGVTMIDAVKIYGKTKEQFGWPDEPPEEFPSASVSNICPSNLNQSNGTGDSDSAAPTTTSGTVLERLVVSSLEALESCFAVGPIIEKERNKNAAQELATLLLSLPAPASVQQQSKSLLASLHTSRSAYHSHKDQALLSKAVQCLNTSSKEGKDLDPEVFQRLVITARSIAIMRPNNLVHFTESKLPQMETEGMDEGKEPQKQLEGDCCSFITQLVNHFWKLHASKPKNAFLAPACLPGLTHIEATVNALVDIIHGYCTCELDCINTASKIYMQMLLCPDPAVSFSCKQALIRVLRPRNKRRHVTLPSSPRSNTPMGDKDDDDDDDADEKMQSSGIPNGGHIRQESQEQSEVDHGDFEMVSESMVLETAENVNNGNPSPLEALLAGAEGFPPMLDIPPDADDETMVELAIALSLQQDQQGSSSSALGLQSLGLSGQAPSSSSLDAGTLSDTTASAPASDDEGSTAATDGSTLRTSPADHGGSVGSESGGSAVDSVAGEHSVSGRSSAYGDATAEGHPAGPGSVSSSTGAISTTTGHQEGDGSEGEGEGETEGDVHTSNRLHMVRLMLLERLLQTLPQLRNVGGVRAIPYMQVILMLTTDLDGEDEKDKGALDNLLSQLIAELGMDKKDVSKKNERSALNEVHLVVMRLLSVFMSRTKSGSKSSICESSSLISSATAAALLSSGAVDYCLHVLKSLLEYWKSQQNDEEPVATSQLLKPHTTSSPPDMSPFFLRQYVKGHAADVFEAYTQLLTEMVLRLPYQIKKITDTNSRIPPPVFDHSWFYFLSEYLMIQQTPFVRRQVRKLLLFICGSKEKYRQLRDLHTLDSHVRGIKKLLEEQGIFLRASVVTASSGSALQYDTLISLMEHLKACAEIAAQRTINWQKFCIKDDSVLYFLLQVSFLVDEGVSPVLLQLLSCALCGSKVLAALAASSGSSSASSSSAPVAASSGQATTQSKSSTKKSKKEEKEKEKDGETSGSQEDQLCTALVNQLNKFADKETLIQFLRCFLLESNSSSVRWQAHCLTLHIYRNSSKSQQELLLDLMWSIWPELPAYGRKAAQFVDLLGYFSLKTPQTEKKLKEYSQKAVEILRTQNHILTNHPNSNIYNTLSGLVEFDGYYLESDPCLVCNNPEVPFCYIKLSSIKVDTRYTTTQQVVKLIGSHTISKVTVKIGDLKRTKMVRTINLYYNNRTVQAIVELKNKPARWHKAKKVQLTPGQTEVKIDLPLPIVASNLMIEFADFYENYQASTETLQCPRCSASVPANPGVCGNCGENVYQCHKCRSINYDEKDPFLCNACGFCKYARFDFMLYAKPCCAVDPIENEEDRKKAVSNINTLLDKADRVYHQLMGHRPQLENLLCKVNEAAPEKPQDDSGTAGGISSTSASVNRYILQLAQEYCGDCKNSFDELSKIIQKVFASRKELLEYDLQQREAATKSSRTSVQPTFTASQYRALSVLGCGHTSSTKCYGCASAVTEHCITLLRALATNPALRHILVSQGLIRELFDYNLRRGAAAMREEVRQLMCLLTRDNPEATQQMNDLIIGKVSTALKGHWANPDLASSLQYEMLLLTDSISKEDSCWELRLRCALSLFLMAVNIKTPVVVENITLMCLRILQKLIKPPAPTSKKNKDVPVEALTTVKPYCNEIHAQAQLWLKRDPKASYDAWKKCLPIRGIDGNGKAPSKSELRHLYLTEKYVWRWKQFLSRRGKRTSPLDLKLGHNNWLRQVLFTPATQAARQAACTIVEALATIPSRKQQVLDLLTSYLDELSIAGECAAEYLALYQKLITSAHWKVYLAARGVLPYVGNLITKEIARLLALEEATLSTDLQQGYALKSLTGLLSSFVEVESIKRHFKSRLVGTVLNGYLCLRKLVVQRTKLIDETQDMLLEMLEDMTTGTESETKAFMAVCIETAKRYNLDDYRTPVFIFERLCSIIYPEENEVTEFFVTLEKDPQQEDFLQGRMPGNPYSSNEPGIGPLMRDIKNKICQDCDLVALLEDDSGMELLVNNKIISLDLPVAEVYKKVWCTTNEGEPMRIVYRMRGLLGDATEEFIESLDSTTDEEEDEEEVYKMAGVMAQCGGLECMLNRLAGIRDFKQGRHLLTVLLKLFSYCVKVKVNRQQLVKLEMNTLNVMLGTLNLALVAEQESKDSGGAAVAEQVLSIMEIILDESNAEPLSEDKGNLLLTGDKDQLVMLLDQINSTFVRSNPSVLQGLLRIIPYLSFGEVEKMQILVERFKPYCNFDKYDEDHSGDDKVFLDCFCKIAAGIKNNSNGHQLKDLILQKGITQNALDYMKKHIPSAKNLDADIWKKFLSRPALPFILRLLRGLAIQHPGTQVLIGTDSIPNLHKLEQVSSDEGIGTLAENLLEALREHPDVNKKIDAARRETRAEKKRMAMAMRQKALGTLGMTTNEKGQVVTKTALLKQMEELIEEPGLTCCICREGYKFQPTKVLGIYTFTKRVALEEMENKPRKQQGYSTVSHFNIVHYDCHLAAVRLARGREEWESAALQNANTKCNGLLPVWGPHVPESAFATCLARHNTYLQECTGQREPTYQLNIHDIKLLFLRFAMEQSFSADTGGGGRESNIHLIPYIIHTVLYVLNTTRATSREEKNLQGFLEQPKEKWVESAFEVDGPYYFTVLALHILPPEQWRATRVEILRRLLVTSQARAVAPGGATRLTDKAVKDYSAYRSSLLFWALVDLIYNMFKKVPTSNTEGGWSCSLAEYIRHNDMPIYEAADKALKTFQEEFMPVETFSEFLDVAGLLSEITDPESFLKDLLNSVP

In turn, “endogenous UBR4 tagged with FLAG at the UBR4 locus (from UniProt Q5T4S7-1 1-5183) (natural protein)” returned a stoichiometry N of 2.

As usually defined, the stoichiometry N is a count of units in the complex or per binding partner.
